This data set can be described thus: yeast display, Sf9 membrane polyspecificity reagent, FACS + sequencing; frameworks hold sequencing errors. Put shortly:
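In a synthetic yeast display library (Saccharomyces cerevisiae BJ5465), nanobody expression was induced with galactose for 36–48 hours. FACS gates were set low and high (top ~1%) using anti-HA fluorescence for expression and streptavidin fluorescence for binding of the Sf9 membrane reagent. Each polyreactivity label is drawn from the gate of origin.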
For the sequence “QVQLLESGGGLVQAGGSLRLSCAASGLIFRGNDMGWYRPAPGKERELVAGINSSGSTNYADSVKGRFTISRDNAKNTVYLQMNSLKPEDTAVYDCAARAIVSFDYWGQGTQVTVSS”, the “polyreactivity (PSR sort gate)” value was “low polyreactivity”.

As to “QVQLVESGGGLVQAGGSLRLSCAASGRTFSIYTMGWYRQAPGKERELVASIRRSSGSTYYADSVKGRFTISRDNAKNTVYLQMNSLKPEDTAVYYCAADRIRLDSRKFDYWGQGTQVTVSS”, the “polyreactivity (PSR sort gate)” value was “low polyreactivity”.

As for “QVQLVESGGGIVHAGGSLRLSCAASGIIFLFYAMGWYRQARVKERELVASITWSGGSTYYADSVKGRFTISRDNAKNNVFLQMLSLKPEDTSVYYCAASVNIISYLVHSEFLGGELDYWGQGTQVTVSS”, the “polyreactivity (PSR sort gate)” value was “low polyreactivity”.

For the sequence “QVQLVESGGGLVQAGGSLRLSCAASGRTFYPNAMGWYRQAPGKERELVAGIRSSGDSTYYADSVKGRFTISRDNAKNTVYLQMNSLKPEDTAVYYCNRDLTPSYDYWGQGTQVTVSS”, the “polyreactivity (PSR sort gate)” value is listed as “low polyreactivity”.

“QVQLVESGGGLVQAGGSLRLRCAASGITFKTYAMGWYRQAPGKERELVATINRGSRTNYADSVKGRFTISRDNAKNTVYLKMNSLKPEDTAVYYCAAHYTTFIPSPDGDYLGQGTQVTVSS”: the “polyreactivity (PSR sort gate)” value is reported as “low polyreactivity”.

On to “QVQLVESGGGLVQAGGSLRLSCAASGFIFPWYSMVWSRQAPGKERELVAAISRGGRTNYADSVKGRFTISRDNAKNTVYLQMNSLIPEDTAVYYCAKKYYLSGSRADDSWGQGTQVTVSS”, for which the “polyreactivity (PSR sort gate)” value is given as “high polyreactivity”.

As for “QEQLLESGGGLVQAGGSLRLSCAASGYISSHIMSWYRQAPGKEREFVDTITDGGTTNYADSVKGRFTISRDNAKNTVYLQMNSLKPEDTAVYYCAAVATYSYHFGYWGHGTQVTVSS”, the “polyreactivity (PSR sort gate)” value is “high polyreactivity”.

For “QVQLVESGRGLVQAGGSLRLSCHASGFTFSPYTMGWSRQAPGKERELVATIRYDCTSTYYADSVKGRFTISRDNAKNTVYLQMNSLKPEDTAVYYCAADIWRVYSTFYYWGQGTEVTVSS”, the “polyreactivity (PSR sort gate)” value is given as “low polyreactivity”.

Turning to “QVQLVESGGGLVQAGGSLRLSCSASGRIFGRYAMGWYRQAPGKERELVAAISASGGSTYYADSVKGRFTISRDNAKNTVYLQMNSLKPEDTAVYYCAADAPAEYYWGQGTQVSVSS”, the “polyreactivity (PSR sort gate)” value is “low polyreactivity”.

As for “QVQLVESGGGLVQAGGSLRLSCAASGSIFYENAMGWYRQAPGKERELVAAISRSGGSTYYADSVKGRFTISRDNAKNSVYLQMNSLKPEDTAVYYCAADVYVFIGDYWGQGTQVTVSS”, the “polyreactivity (PSR sort gate)” value was “low polyreactivity”.

“QVQLVESGGGLVQAGGSLRLSCAASGSSFRSNDMGWYRQAPGKERELVARITSSVGSTYYADSVKGRFTISRDNAKNTVYLQMNSLKPEDTAVYYCAKRYYHYPYGYRDYDYWGQGTQVTVSS”: the “polyreactivity (PSR sort gate)” value is “low polyreactivity”.

As to “QVQLVESGGGLVQAGGSLRLSCAASGRIFPYYGMGWYRHAPGKERELVAAITWDSGSTYYADSVKGRFTISRDNAKNTVYLQMNSLKPEDTAVYYCAAPISFYSPAEYYYWGQGTQVTVSS”, the “polyreactivity (PSR sort gate)” value is on record as “low polyreactivity”.

For “QVQLVESGGGLVQAGGSLRLSCAASGLTFASNAMGWYRQAPGKERELVAAISWSDGSTYYADSVKGRFTISRDNAKNTVYLQMNSLKPEDTAVYYCAADPPGFRTYRVGYWGQGTQVTVSW”, the “polyreactivity (PSR sort gate)” value is given as “low polyreactivity”.

Consider “QVQLVETGGGLVQAGGSLRLSCAASGSIFIWYAMGWYRQAPGKERELVAAIRSGGSTYYADSVKGRFTISRDNAKNTVYFQMNRLKPEDTAVYYCAKVLSWRGNRYNYWGQGTQVTVSS”, for which the “polyreactivity (PSR sort gate)” value was “low polyreactivity”.

On to “QVQLVESGGGLVQAGGSLRLSCAASGLIFTTYDMGWYRQAPGKERELVAAISASSDTTYYADSVKGRFTISRDNAKNTVYLQMNSLKPEDTAVYYCAADRFDFPTATGSNYWGQGTQVTVSS”, for which the “polyreactivity (PSR sort gate)” value was “low polyreactivity”.

Regarding “QVQLVESGGGLVQAGGSLRLICAASGRTFRYNAMGWYRQAPGKERELVASITSGGSTNYADSVKGRFTISRDHAKNTVYLQMNSLKPEDTAVYYCAKDHYYRYEDGDYWGQGTQVTVSS”, the “polyreactivity (PSR sort gate)” value is on record as “low polyreactivity”.
